Our source for the Kd values is the Immune Epitope Database (IEDB).

Broadly, the Kd is a measure of binding affinity in units of concentration.

In one experiment the target is HLA-B*08:01. As to the kind of experiment: IEDB peptide-MHC binding, purified MHC/competitive/radioactivity; filed as Kd, often an IC50 or EC50 that approximates it; ≥ and ≤ were set here for values at or beyond the usual limits of such assays.
A further experiment addresses HLA-B*15:01. The description is as above. As to conditions: source organism: Vaccinia virus WR.
A further experiment deals with HLA-A*02:01. As to the kind of experiment: IEDB peptide-MHC binding, purified MHC/competitive/fluorescence; filed as Kd, often an IC50 or EC50 that approximates it; ≥ and ≤ were set here for values at or beyond the usual limits of such assays. As to conditions: source organism: Variola virus.
In a further experiment the target is HLA-A*01:01. As to the kind of experiment: IEDB peptide-MHC binding, purified MHC/competitive/radioactivity; filed as Kd, often an IC50 or EC50 that approximates it; ≥ and ≤ were set here for values at or beyond the usual limits of such assays.
The target of another experiment is HLA-A*23:01. The description is as above.
The next experiment has as its target HLA-A*24:02. The description is as above.
A further experiment concerns the target HLA-A*26:01. The description is as above.
The next experiment deals with HLA-A*29:02. Described as above.
In a further experiment the target is HLA-A*30:02. The description is as above.
In a further experiment the target is HLA-A*68:02. The description is as above.
In a further experiment the target is HLA-A*02:03. The experiment is described as above.
Another experiment has as its target HLA-A*02:06. Described as above.
The next experiment addresses HLA-B*35:01. Described as above.
The target of another experiment is HLA-A*02:02. Described as above. As to conditions: source organism: Lassa virus Josiah.
The target of a further experiment is HLA-A*03:01. Described as above. As to conditions: source organism: Triticum aestivum.
For the next experiment, the target named is HLA-A*11:01. The description is as above. As to conditions: source organism: Triticum aestivum.
In the next experiment the target is HLA-A*31:01. The description is as above. The note with it: source organism: Triticum aestivum.
In another experiment the target is HLA-A*33:01. The description is as above. The note with it: source organism: Triticum aestivum.
The next experiment concerns the target HLA-A*68:01. Described as above. The note with it: source organism: Triticum aestivum.
Another experiment addresses HLA-B*53:01. Described as above. The note with it: source organism: Dengue virus 1 Singapore/S275/1990.
The mark [1] stands for this setting: source organism: Vaccinia virus WR.
The mark [2] stands for this setting: source organism: Mammarenavirus juninense.
Where [3] appears, read: source organism: Dengue virus 2 Jamaica/1409/1983.
[4] abbreviates: source organism: Dengue virus 3 Martinique/1243/1999.
Setting [5] is: source organism: Lassa virus Josiah.
Setting [6] is: source organism: Mammarenavirus lassaense.
Where [7] appears, read: source organism: Triticum aestivum.
Setting [8] is: source organism: Dengue virus 4 Philippines/H241/1956.
[9] abbreviates: source organism: Lymphocytic choriomeningitis virus (strain Armstrong).
Where [10] appears, read: source organism: SARS coronavirus Tor2.

Turning to NMHLKRSVF, the Kd with HLA-B*08:01 (setting [1]) came out at 149 nM.
On to NSKSRICVI, for which the values for the equilibrium dissociation constant (Kd) with HLA-B*08:01 (setting [1]) and with HLA-B*15:01 were 11.1 nM and 1400 nM, respectively.
QLNMEKREV showed a Kd with HLA-A*02:01 of 142 nM.
For the sequence RCWLIKNNSY, the equilibrium dissociation constant (Kd) with HLA-A*01:01 (setting [2]) was no less than 30600 nM; in the experiment with HLA-A*23:01 (setting [2]), no less than 70000 nM; with HLA-A*24:02 (setting [2]), no less than 70300 nM; with HLA-A*26:01 (setting [2]), no less than 69700 nM; with HLA-A*29:02 (setting [2]), no less than 29100 nM; with HLA-A*30:02 (setting [2]) it was 9.91 nM.
In the case of RMRFKKGAV, in the experiment with HLA-B*08:01 (setting [1]), the Kd came to 5.38 nM.
As to RSTSLSVSLV, the Kd with HLA-A*68:02 (setting [3]) was 253 nM.
As to RTATLILAGV, the dissociation constant Kd was 6.47 nM with HLA-A*02:03 (setting [4]), 5.19 nM with HLA-A*02:06 (setting [4]) and 0.26 nM with HLA-A*68:02 (setting [4]).
On to SGMVFTSPV, for which the Kd with HLA-B*08:01 (setting [1]) was found to be 77.3 nM.
On to SPYYRNSVA, for which the equilibrium dissociation constant (Kd) in the experiment with HLA-B*08:01 (setting [1]) stood at 111 nM.
For SRFKKVYIL, in the experiment with HLA-B*08:01 (setting [1]), the Kd came out at 76.4 nM.
For SVNMISRMLI, the Kd with HLA-A*68:02 (setting [3]) is 236 nM.
Turning to TTANISLTAI, the Kd with HLA-A*68:02 (source organism: Dengue virus 1 Brazil/97-11/1997) was determined as 0.8 nM.
Consider VAATMANEM, for which, in the experiment with HLA-B*35:01 (setting [3]), the Kd turned out to be 572 nM.
Turning to VLIALSVLAV, the Kd with HLA-A*02:02 turned out to be 162 nM; with HLA-A*02:03 (setting [5]), 12.2 nM; with HLA-A*02:06 (setting [5]), 128 nM; with HLA-A*68:02 (setting [5]), 3750 nM.
With VPVHLCNLI, the Kd with HLA-A*01:01 (setting [6]) is no less than 78100 nM; in the experiment with HLA-A*23:01 (setting [6]), 3170 nM; in the experiment with HLA-A*24:02 (setting [6]), 5700 nM; with HLA-A*26:01 (setting [6]), no less than 77900 nM; with HLA-A*29:02 (setting [6]), no less than 78900 nM; in the experiment with HLA-A*30:02 (setting [6]) it was no less than 47900 nM.
Take VVLQQHSIAY: the dissociation constant (Kd) in the experiment with HLA-A*01:01 (setting [7]) is no less than 70400 nM; with HLA-A*03:01 it was 2340 nM; in the experiment with HLA-A*11:01, 1640 nM; with HLA-A*23:01 (setting [7]) it was no less than 25900 nM; with HLA-A*24:02 (setting [7]), no less than 39900 nM; with HLA-A*26:01 (setting [7]) it was no less than 69700 nM. Also, the dissociation constant Kd in the experiment with HLA-A*29:02 (setting [7]) was 1040 nM; with HLA-A*30:02 (setting [7]) it was 5390 nM; with HLA-A*31:01 it was no less than 70000 nM; with HLA-A*33:01, no less than 70000 nM; with HLA-A*68:01, no less than 24900 nM.
With WAFCEVLTL, the Kd with HLA-B*35:01 (setting [8]) worked out at 571 nM.
On to WAKNIHTAI, for which the Kd with HLA-B*08:01 (setting [8]) came to 23.3 nM.
On to WATLLSLTF, for which the Kd in the experiment with HLA-B*35:01 (source organism: Dengue virus 1 Singapore/S275/1990) worked out at 125 nM; in the experiment with HLA-B*53:01, 4.07 nM.
For the sequence WTAGADTSEV, the Kd with HLA-A*68:02 (source organism: Dengue virus 4 Dominica/814669/1981) stood at 29.1 nM.
Regarding YCNYSKFWY, the dissociation constant (Kd) with HLA-A*01:01 (setting [9]) was no less than 21200 nM; with HLA-A*23:01 (setting [9]) it was 14600 nM; with HLA-A*24:02 (setting [9]), no less than 23500 nM; with HLA-A*26:01 (setting [9]), no less than 77900 nM; in the experiment with HLA-A*29:02 (setting [9]), 1030 nM; with HLA-A*30:02 (setting [9]), 1290 nM.
Take YFPREGVFVF: the Kd with HLA-A*01:01 (setting [10]) is no less than 70400 nM; with HLA-A*23:01 (setting [10]), 5.75 nM; with HLA-A*24:02 (setting [10]), 7.35 nM; in the experiment with HLA-A*26:01 (setting [10]), 17200 nM; with HLA-A*29:02 (setting [10]) it was 7.23 nM; with HLA-A*30:02 (setting [10]) it was no less than 78900 nM.
Take YRGAKRMAIL: in the experiment with HLA-B*08:01 (setting [8]), the equilibrium dissociation constant (Kd) was found to be 130 nM.
Take YRKYHVPIM: the Kd in the experiment with HLA-B*08:01 (setting [1]) worked out at 61.8 nM.
YSAPFESEGV: the dissociation constant (Kd) with HLA-A*68:02 (setting [8]) was 2.52 nM.
